Test results as given in the nanobody polyreactivity screen of Harvey et al. (2022).

experiment: yeast display, Sf9 membrane polyspecificity reagent, FACS + sequencing; frameworks hold sequencing errors
Procedure, shortened: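 Using colony PCR, genes from sorted yeast display clones were amplified, then sequenced on MiSeq at 2 × 250 and filtered by CDR length. The clones had been stained with 10% biotinylated, detergent-solubilized Sf9 membrane reagent for 1 hour at 4 °C and sorted by FACS into low and high (top ~1%) gates on anti-HA and streptavidin fluorescence. Polyreactivity labels come from the gate of origin.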

Sequence	polyreactivity (PSR sort gate)
QVLLQESGGGLVQAGGSLRLSCAASGNIFSAGGMGCYRQAPVNERELVAGIGTGTSTNYADSVKGRFTISRDNAKNTVYLQMNSLKPEDTAVYYCAAAYYSGLSHWYWGQGTQVTVSS	low polyreactivity
QVQLVESGGGLVQAGGSLRLSCAASGSTFVPYAMGWYRQAPGKERELVAAITTSGGNTYYADSVKGRFTISRDNAKNTVYLQMNSLKPEDTAVYYCAADTYRRFDYWGEGTQVTVSS	low polyreactivity
QVQLVESGGGLVQAGGSLRLTCAASGRTFGDNAMGWYRQAPWKERELVAAITSGASTYYADAVKGRFTISRDNAMNTVYLQMNSLKPEDTAVYYCADDQGDWNGYGFDYWGQGTQVTVSS	low polyreactivity
QVQLVESGGGLVQAGGSLRLSCAASGSTFAANPMGWYRQAPGKERELVAAITSSGGSTYYADSVKGRFTISRDNAKNTVYLQMNSLKPEDTEVYYCNKDIERYVRIYDSWGQGTQVTVSS	low polyreactivity
QVQLVESGGGLVQAGGSLRLSCAASGPIIDFYAMGWSRKAPGKERELVAAISWRGGSTYYADSVKGRFTISRDNAKNSVYLQMNSLKPEDTAVYYCANRFGPRYYWGQGTQVTVSS	low polyreactivity
QVQLVESGGCLVQAGGRLRLSCAASGSTFAYYSMGWDRQAPGKERELVAAITDSGGSTYYADSVKGRFTISRDNAKNTVYLQMNSLIPEDTAVYYCAVYGPWAYYPMGYWGQGSQVTVSS	low polyreactivity
QVQLVESGGGLVQAGGSIRLSCAASGITFYRNAMGWYRQAPGKEKELVAAITWNGGRTYYADSVKGRFTISRDNAKNTVYLQMNSLKPEDTAVYYCAAAYPTYRHYYWGQGTQVTVSS	low polyreactivity
QVQLVESGGRLVQAGGSLRLSCAASGRTFFGYAMGWYRQAPGKEWELVAAISSGGRTYYADSVKGRFTISRDNAQNTVYLQMNSLKPEDTAVYSCAAQYSARYYYWGQGTQVTVSS	high polyreactivity
QVQLVESGGGLVQAGGSLRLSCAASGFTISKYAMGWYRQAPGKERELVAVISSGGRTNYADSVKGRFTISRDNAKNTVYLQMNSLKPEDTAVDYCAAIGWRTRSRFEYWGQGTQVTVSS	high polyreactivity
QVQLVESGGGLVLAGGRLRLSCAASGFTLDYYTMGWYRLAPGKEREFVAAITRRTGNTYYADSVKGRFTISRDNEKITVYLQMNSLKPEDPAVYYCAATFWPWYSGITYYYWGQGTQVTVSS	high polyreactivity
QVQLVESGGGIVQAGGSLRLSCAASGRIFWDYAMGWYRQAPGKERELVDVITLSGDSTYYADSVKGRFTISRDNAKNTVYLQMNSLKPEDTAVYYCAAARAIRQFWYVATFEYWGQGTQVTVSS	low polyreactivity
QVQLVESGGGLVQAGGSLRLSCAASGRTFRSYAMGWYRQAPGKERELVAAITSGGSTYYADSVKGRFTISRDNAKNTVYLQMNSLKPEDTAVYYCARGDHVGSAGYDYWGQGTQVTVSS	low polyreactivity
QVQLVESGGGLVQAGGSLRLSCAASGYIFRQNAMGWYRQAPGKERELVAAITWSGGSTYYADSVKGRFTISRDNAKNTVYLQMNSLKPEDTAVYYCNAYSYVAIRDGGDYWGQGTQVTVSS	low polyreactivity
QVQLVESGGGLVQAGGSLRLSCAASGRIFGYYALGLSRQAPGKERELVAAINSGSRTYYADSVKGRFTISRDNAKNTVYLQMNSLKPEDTAVYYCAKVGRGNNYWGQGTQVTVSS	high polyreactivity
QVQLVESGGGLVQAGGSLRLSCAASGFIFRRYAMGWYRQAPGKERDLVAAIRSDRSTNYADSVKGRFTISLDNAKNTVYLQMNSLKPEDTAVYYCARPYRSHYGWGVRGFDYWGQGTQVTVSS	high polyreactivity
QVQLVESGGGLVQAGGSLRLSCAASGSIYGYVKGWYRPAPGKERELVAAIRRSGGSTYYADSVKGRFTISRDNAKNTVYLQMNSLKPEDTAVYYCAARTYGTDRYYYWGQGTQVTVSS	high polyreactivity
QVQLVESGGGLVQAGGSLRLSCAASGLIFYRYAMGWYRQAPGTEREMVAAITTNGARTYYADSVKGRFTISRDNAKNTVYLEMNSLKPEDTAVYYCAAYGAGKFWADHNYWGQGTQVTVSS	high polyreactivity
QVQLVESGGGLVQAGGSLRLSCAASGSIFKNYAMGWYRQAPGKERELVASITTGASTNYADSVKGRFTISRDNAKNTVYLQMNSLKPEDTAVYYCAKGGRTFRYFVAPRTFDHGYWGQGTQVTVSS	high polyreactivity
QVQLVESGGGLVQAGGSLRLSCAASGSIFQGYAMGWYRKAPGKERELVAAITSSGGSTRYADSVKGRFTISRDNAKNTVYLQMNSLKPEDTAVYYCAARYKWPYDYWGQGTQVTVSS	high polyreactivity
QDQLVESGVGLVQAGGSLRLSCAASGRIFGRYSMGWYRQAPGKEMEFVAAISKRGGGTYYADSVKGRFTISRDNAKNTVYLQMNSLKPEDSAVYYCAVDNSPGFDDYDYWGQGTQVTVSS	high polyreactivity
QVQLVESGGGLVQAGGSLRLTCAASGITFTIYAMGWYRLATGKERELVAAISWSGTSTYYADSVKGRFTISRDNAKNTVYLKMNSLKQEDTAVYYCAADYTTSQGDSELDYWGQGTQVTVSS	low polyreactivity

Sequence	polyreactivity (PSR sort gate)
QDQLVESGGGLVQAGGSLRISCAASGGTFKSYAMGWYREAPGKERELVATITRDGRTNYADSVKGRFTISRDNAKNTVYLQMNSLKPEDTAVYYCNADYWSVWIALEFTVDYWGQGTQVTVSS	low polyreactivity
QVQLVASGGGLVQAGGSVRLSCAASGFIVNYYAMGWYRQAPGKEGELLAAISSGGSTYYADSVKGRFTISRDNAKNTVYLQMNSLKPEDTAVYYCAARYTDLRLARYYYDYYYWGQGTQVTVSS	high polyreactivity
QVQLVESGGGLVQAGGSLRLSCAASGSTFYRNAMGWYRQAPGKERELVAAISRGSRTYYADSVKGRFTISRDNAKNTVYLQMNSLKPEDTAVYNCAARAGARDTLHDYWGQGTQVTVSS	high polyreactivity
QFQLVDSGGGLVQAGGSLRLSCAPSGRIFQIYAMGWYRQAPGKERELVAAISGSTSYADSVKGRFTISRDNAKNTVYLQMISLKPEDTAVYYCAARALLPYGEYWGQGSQVTVSS	low polyreactivity
QVQLVESGGGLVQAGGSLRLSCAASGSTFYVNAMGWYRQAPGKERELVATISSGGSTNYADSVKGRFTISRDNAKNTVYLQMNSLKPEDTAVYYCAKEYGSIIPYDYWGQGTQVSVSS	low polyreactivity
QVQLVESGGGLVQAGGSLRLSCAASGLIFYQYAMGWYRQAPGKERELVAAINWSGGSTYYADSVKGRFTISRDNAKNTVYLQMNSLKPEDTAVYYCAADTAFRFALTRYRPMDYWGQGTQVTVSS	high polyreactivity
QVQLVESGGGLVQAGGSLRLSCAASGRTFPRYTMGWYRQAPGKERELVAASATGGSTYYADSVKGRFTISRDNAKNTVYLQMNSLKPEDTAVYYCAARPYSNRYVLGVYYWGQGTQVTVSS	high polyreactivity
QVQLVESGGGLVQAGGSLRLSCAASGRTFVYYAMGWYRQAPGKERELVAAISTGGSTNYADSVKGRFTISRDNAKNTVYLQMNSLKPEDTAVYYCAAQYYISISKYDYWGQGTQVTVSS	low polyreactivity
QVQLVESGGGLVQAGGSLRLSCAASGRIFQNYAMGWYRQAHGKERELVATISSGVSTYYADSVKGRFTISRDNAKNTVYLQMNSLKPEDTAVNYCAAYVPWFEMDYWGQGTQVTVSS	low polyreactivity
QVQLVESGGGLVQAGGSLRLSCAASGRTFRFNAMGWYRQAPGKEMELVAAISSGGRTYYADSVKGRFTISRDNAKNTVYLQMNSLKPEDTAVYYCAARVFVRHPHQVAYDYWGQGTQVTVSS	high polyreactivity
QVQLVESGGGLVQAGGSLRLSCAASGLTLSYYAMGWYRQAPGKERELVATISWRTGSTYYADSVKGRFTISRDNAKNTVYLQMNSLKPEDTAVYYCNARGFQYSYSHLIYYPYDYWGQGTQVTVSS	high polyreactivity
QVQLVESGGGLVQAGGSLRLSCAASGFTFAYYTMGWYRQAPGKERELVVVINRSGSTNYADSVKGRFTISRDNAKNTVYLQMNSLKPEDTAVYYCATGVALRYGYWGQGTQVTVSS	low polyreactivity
QVQLVESGGGLVQAGGSHGLSCAASGSTFYYNAMGWYRPAPGKERELVARISRSGGSTYADSVKGRFTISRDNAKNTVYLLMNSLKPEDTAVYYCNADAYGTPEFTSYAVRYDHWGQGTQETVSS	low polyreactivity
QVQLVESGGGLVQAGGSLRLSCAASGSIFRGYTMGWYRQAPGKERELVAAISWSGGSTYYADSVKGRFTISRDNAKNTVYLQMNSLKPEDTAVYDCAAGDYYHRIFLWYDYWGQGTQVTVSS	low polyreactivity
QVQLVESGGGLVQAGGSLRLSCAASGSTFDGYAMGWYRQAPGKERELVAAITSSDGSTYYADSVKGRFTISRDNAKNTVYLQMNSLKPEDTAVSDCNAEGYDWEFGYWGQGTQVTVSS	low polyreactivity
QVQLVESGGGLVQAGGSLRLSCAASGRIFYYYAMGWYRQAPGKERELVATISRAGITNYADSVKGRFTISRDNAKNTVYLQMNSLKPEDTAVYYCADTFYPWRYNYEYWGQGTQVTVSS	high polyreactivity
QVQLVESGGGLVQAGGSLRLSCAASGRTFTWNVMGWYRQAPGKERELVAAITTDDRTYADSVKGRFTISRDNAKNTVYLQMNILKPEDTAVYYCATVVAWSSRPVGEDYWGQGTQVTVSS	low polyreactivity
QVQLVESGGGLVHAGGSLRLSCAASGLTFGAYAMGWYRQAPGEERELVATITNSGRTYYADSVKGRFTISRDNAKNTVYLQMNSLKPEDTAVYYCAAQPDGQAMDHWGQGTQVTVSS	low polyreactivity
QVQLVESGGGLVQAGGSLRLSCAASGSMFVRYAMGWYRQAPGKERELVAAISSDGNTYYADSVKGRFTISRDNAKNTVYLPRNSLKPEDTAVYYCAAKTRSRYYWGQGTQVTVSS	high polyreactivity
QVHLVESGGGLVQAGGSLRLSCAASGSISGLYAMGWYRQAPGKETELVAAISFSAGSTYYADSVKGRFTISRDNAKNTVYFQMNSLKPEDTAVYYCAADGQYGGVPNTSEWTFDYWGQGTQVTVSS	low polyreactivity
